Measured values published in patent US20020098189A1 (AstraZeneca / MedImmune, published 2002).

Experiments:
[1] = substrate: F protein of respiratory syncytial virus (RSV-Long strain), on infectious virus (respiratory syncytial virus (RSV-Long strain)) (UniProt P12568); assay: cell-based or functional assay
[2] = target: T1, C-terminal truncated RSV F protein, secreted from recombinant baculovirus-infected cells (respiratory syncytial virus (strain not …, UniProt P03420 26-526)); assay: SPR (BIAcore), F protein immobilized, Fab injected
T1 construct: also called F antigen of RSV
Protocol: A typical kinetic study involved the injection of 35 ml of Mab at varying concentrations (25-300 nM) in PBS buffer containing 0.05% Tween-20 (PBS/Tween). The flow rate was maintained at 5 ml/min, giving a 7 min binding phase. Following the injection of Mab, the flow was exchanged with PBS/Tween buffer for 30 min for determining the rate of dissociation. The sensor chip was regenerated between cycles with a 2 min pulse of 10 mM HCI.
More specifically, for measurement of kassoc (or kₒₙ), F protein was directly immobilized by the EDC/NHS method (EDC=N-ethyl-N′-[3-diethylaminopropyl)-carbodiimide). Briefly, 4 μg/ml of F protein in 10 mM NaOAc, pH 4.0 was prepared and about a 30 μl injection gives about 500 RU (response units) of immobilized F protein under the above referenced conditions. The blank flow cell (VnR immobilized-CM dextran surface) was subtracted for kinetic analysis. The column could be regenerated using 100 mM HCI (with 72 seconds of contact time being required for full regeneration). […] The dissociation phase was analyzed from 230 seconds (30 seconds after start of the dissociation phase) to 900 seconds. Kinetics were analyzed by 1:1 Langmuir fitting (global fitting). Measurements were done in HBS-EP buffer (10 mM HEPES, pH 7.4, 150 mM NaCl, 3 mM EDTA, 0.005% (v/v) Surfactant P20.
For measuring k_{off (or k}dissoc) the following conditions were employed. Briefly, 4100 RU of F protein were immobilized (as above) with CM-dextran used as the blank. Here, 3000 RU of Fab was bound (with dissociated Fab high enough to offset machine fluctuation). […] The dissociation phase was 6-15 hours at a flow rate of 5 μl/min.

[3] = target: F protein of respiratory syncytial virus (RSV-Long strain), on infectious virus (respiratory syncytial virus (RSV-Long …, UniProt P12568 26-574)); assay: cell-based or functional assay

T1 sequence (P03420 26-526): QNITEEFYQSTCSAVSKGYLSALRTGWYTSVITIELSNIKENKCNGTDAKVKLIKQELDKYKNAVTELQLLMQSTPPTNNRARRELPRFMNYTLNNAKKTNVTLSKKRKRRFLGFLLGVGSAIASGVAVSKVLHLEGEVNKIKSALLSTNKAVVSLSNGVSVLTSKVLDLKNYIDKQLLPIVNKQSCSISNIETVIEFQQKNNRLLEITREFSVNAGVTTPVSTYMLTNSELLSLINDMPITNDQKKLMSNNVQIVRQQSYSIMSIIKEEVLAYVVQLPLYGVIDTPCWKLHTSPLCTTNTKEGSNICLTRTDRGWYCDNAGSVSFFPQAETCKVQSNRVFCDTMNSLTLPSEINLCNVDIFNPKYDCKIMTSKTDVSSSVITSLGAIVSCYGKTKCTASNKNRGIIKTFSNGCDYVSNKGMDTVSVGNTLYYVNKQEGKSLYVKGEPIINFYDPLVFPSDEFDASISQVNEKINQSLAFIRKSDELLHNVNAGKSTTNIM
F protein of respiratory syncytial virus (RSV-Long strain), on infectious virus (respiratory syncytial virus (RSV-Long strain)), sequence (P12568 26-574): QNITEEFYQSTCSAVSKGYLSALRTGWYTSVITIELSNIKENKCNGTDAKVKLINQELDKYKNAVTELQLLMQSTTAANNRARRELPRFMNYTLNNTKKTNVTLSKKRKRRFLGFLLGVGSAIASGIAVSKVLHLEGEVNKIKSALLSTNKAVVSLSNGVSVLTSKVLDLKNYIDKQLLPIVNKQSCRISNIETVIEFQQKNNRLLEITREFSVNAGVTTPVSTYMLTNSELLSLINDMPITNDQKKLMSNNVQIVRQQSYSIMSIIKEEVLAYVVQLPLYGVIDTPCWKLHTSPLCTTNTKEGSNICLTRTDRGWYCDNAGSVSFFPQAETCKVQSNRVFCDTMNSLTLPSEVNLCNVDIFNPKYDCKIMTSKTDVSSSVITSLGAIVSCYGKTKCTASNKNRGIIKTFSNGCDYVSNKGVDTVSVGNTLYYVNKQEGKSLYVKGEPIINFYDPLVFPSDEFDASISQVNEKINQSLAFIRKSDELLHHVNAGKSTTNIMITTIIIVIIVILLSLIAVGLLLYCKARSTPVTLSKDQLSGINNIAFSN

Binder	Mean IC50 µg/ml, RSV microneutralization [1] [µg/mL]	Mean IC50 (Control) µg/ml, RSV microneutralization [1] [µg/mL]	koff [2] [s⁻¹]	kon [2] [M⁻¹ s⁻¹]	EC50 (nM), RSV microneutralization [3] [nM]
Clone 24 (IgG) (antibody, V domains shown) VH: QVTLRESGPALVKPTQTLTLTCTFSGFSLSTAGMSVGWIRQPPGKALEWLADIWWDGKKHYNPSLKDRLTISKDTSKNQVVLKVTNMDPADTATYYCARDMIFNWYFDVWGQGTTVTVSS VL: DIQMTQSPSTLSASVGDRVTITCSLSSRVGYMHWYQQKPGKAPKLLIYDTFKLSSGVPSRFSGSGSGTEFTLTISSLQPDDFATYYCFQGSGYPFTFGGGTKVEIKR	0.0625	0.0645			
Clone 23 (IgG) (antibody, V domains shown) VH: QVTLRESGPALVKPTQTLTLTCTFSGFSLSTPGMSVGWIRQPPGKALEWLADIWWDGKKHYNPSLKDRLTISKDTSKNQVVLKVTNMDPADTATYYCARDMIFNWYFDVWGQGTTVTVSS VL: DIQMTQSPSTLSASVGDRVTITCSPSSRVGYMHWYQQKPGKAPKLLIYDTMRLASGVPSRFSGSGSGTEFTLTISSLQPDDFATYYCFQGSGYPFTFGGGTKVEIKR	0.0217	0.0289			
Clone 19 (IgG) (antibody, V domains shown) VH: QVTLRESGPALVKPTQTLTLTCTFSGFSLSTAGMSVGWIRQPPGKALEWLADIWWDDKKHYNPSLKDRLTISKDTSKNQVVLKVTNMDPADTATYYCARDMIFNFYFDVWGQGTTVTVSS VL: DIQMTQSPSTLSASVGDRVTITCSASSRVGYMHWYQQKPGKAPKLLIYDTFFLDSGVPSRFSGSGSGTEFTLTISSLQPDDFATYYCFQGSGYPFTFGGGTKVEIKR	0.0171	0.0154			
Reference clone (Fab fragment with the sequences of FIG. 2 and the CDRs of Table 1) (Fab, V domains shown, also called basic structure) VH: QVTLRESGPALVKPTQTLTLTCTFSGFSLSTSGMSVGWIRQPPGKALEWLADIWWDDKKDYNPSLKSRLTISKDTSKNQVVLKVTNMDPADTATYYCARSMITNWYFDVWGQGTTVTVSS VL: DIQMTQSPSTLSASVGDRVTITCSASSSVGYMHWYQQKPGKAPKLLIYDTSKLASGVPSRFSGSGSGTEFTLTISSLQPDDFATYYCFQGSGYPFTFGGGTKVEIK			0.00065	185000	3.52
Clone 26 (IgG) (antibody, V domains shown) VH: QVTLRESGPALVKPTQTLTLTCTFSGFSLSTAGMSVGWIRQPPGKALEWLADIWWDGKKSYNPSLKDRLTISKDTSKNQVVLKVTNMDPADTATYYCARDMIFNFYFDVWGQGTTVTVSS VL: DIQMTQSPSTLSASVGDRVTITCSLSSRVGYMHWYQQKPGKAPKLLIYDTMYQSSGVPSRFSGSGSGTEFTLTISSLQPDDFATYYCFQGSGYPFTFGGGTKVEIKR	0.0376	0.0375			
Clone 18 (IgG) (antibody, V domains shown) VH: QVTLRESGPALVKPTQTLTLTCTFSGFSLSTAGMSVGWIRQPPGKALEWLADIWWDGKKSYNPSLKDRLTISKDTSKNQVVLKVTNMDPADTATYYCARDMIFNFYFDVWGQGTTVTVSS VL: DIQMTQSPSTLSASVGDRVTITCLPSSRVGYMHWYQQKPGKAPKLLIYDTMYQSSGVPSRFSGSGSGTEFTLTISSLQPDDFATYYCFQGSGYPFTFGGGTKVEIKR	0.0342	0.0354			
Clone 20 (IgG) (antibody, V domains shown) VH: QVTLRESGPALVKPTQTLTLTCTFSGFSLSTAGMSVGWIRQPPGKALEWLADIWWDDKKSYNPSLKDRLTISKDTSKNQVVLKVTNMDPADTATYYCARDMIFNWYFDVWGQGTTVTVSS VL: DIQMTQSPSTLSASVGDRVTITCSPSSRVGYMHWYQQKPGKAPKLLIYDTRYQSSGVPSRFSGSGSGTEFTLTISSLQPDDFATYYCFQGSGYPFTFGGGTKVEIKR	0.0337	0.0383			
Clone 28 (Fab) (Fab, V domains shown) VH: QVTLRESGPALVKPTQTLTLTCTFSGFSLSTAGMSVGWIRQPPGKALEWLADIWWDDKKSYNPSLKDRLTISKDTSKNQVVLKVTNMDPADTATYYCARDMIFNWYFDVWGQGTTVTVSS VL: DIQMTQSPSTLSASVGDRVTITCSPSSRVGYMHWYQQKPGKAPKLLIYDTRYQSSGVPSRFSGSGSGTEFTLTISSLQPDDFATYYCFQGSGYPFTFGGGTKVEIK	0.177	0.157			
Clone 21 (IgG) (antibody, V domains shown) VH: QVTLRESGPALVKPTQTLTLTCTFSGFSLSTPGMSVGWIRQPPGKALEWLADIWWDDKKHYNPSLKDRLTISKDTSKNQVVLKVTNMDPADTATYYCARDMIFNFYFDVWGQGTTVTVSS VL: DIQMTQSPSTLSASVGDRVTITCSLSSRVGYMHWYQQKPGKAPKLLIYDTFYLSSGVPSRFSGSGSGTEFTLTISSLQPDDFATYYCFQGSGYPFTFGGGTKVEIKR	0.0231	0.0223			
Clone 29 (Fab) (Fab, V domains shown) VH: QVTLRESGPALVKPTQTLTLTCTFSGFSLSTAGMSVGWIRQPPGKALEWLADIWWDDKKHYNPSLKDRLTISKDTSKNQVVLKVTNMDPADTATYYCARDMIFNFYFDVWGQGTTVTVSS VL: DIQMTQSPSTLSASVGDRVTITCSASSRVGYMHWYQQKPGKAPKLLIYDTFFLDSGVPSRFSGSGSGTEFTLTISSLQPDDFATYYCFQGSGYPFTFGGGTKVEIK	0.0414	0.0411			
Clone 27 (Fab) (Fab, V domains shown) VH: QVTLRESGPALVKPTQTLTLTCTFSGFSLSTAGMSVGWIRQPPGKALEWLADIWWDGKKSYNPSLKSRLTISKDTSKNQVVLKVTNMDPADTATYYCARDMIFNFYFDVWGQGTTVTVSS VL: DIQMTQSPSTLSASVGDRVTITCLPSSRVGYMHWYQQKPGKAPKLLIYDTMYQSSGVPSRFSGSGSGTEFTLTISSLQPDDFATYYCFQGSGYPFTFGGGTKVEIK	0.0179	0.0171			
Clone 25 (IgG) (antibody, V domains shown) VH: QVTLRESGPALVKPTQTLTLTCTFSGFSLSTAGMSVGWIRQPPGKALEWLADIWWDGKKDYNPSLKDRLTISKDTSKNQVVLKVTNMDPADTATYYCARDMIFNFYFDVWGQGTTVTVSS VL: DIQMTQSPSTLSASVGDRVTITCSASSRVGYMHWYQQKPGKAPKLLIYDTFKLSSGVPSRFSGSGSGTEFTLTISSLQPDDFATYYCFQGSGYPFTFGGGTKVEIKR	0.0357	0.0354			
Clone 22 (IgG) (antibody, V domains shown) VH: QVTLRESGPALVKPTQTLTLTCTFSGFSLSTPGMSVGWIRQPPGKALEWLADIWWDDKKHYNPSLKDRLTISKDTSKNQVVLKVTNMDPADTATYYCARDMIFNFYFDVWGQGTTVTVSS VL: DIQMTQSPSTLSASVGDRVTITCSLSSRVGYMHWYQQKPGKAPKLLIYDTRGLPSGVPSRFSGSGSGTEFTLTISSLQPDDFATYYCFQGSGYPFTFGGGTKVEIKR	0.0242	0.0235			
Clone 5 (Fab) (Fab, V domains shown) VH: QVTLRESGPALVKPTQTLTLTCTFSGFSLSTAGMSVGWIRQPPGKALEWLADIWWDDKKDYNPSLKSRLTISKDTSKNQVVLKVTNMDPADTATYYCARDMITNFYFDVWGQGTTVTVSS VL: DIQMTQSPSTLSASVGDRVTITCSASSSVGYMHWYQQKPGKAPKLLIYDTFKLASGVPSRFSGSGSGTEFTLTISSLQPDDFATYYCFQGSGYPFTFGGGTKVEIK			0.000306	416000	2.61
Clone 6 (Fab) (Fab, V domains shown) VH: QVTLRESGPALVKPTQTLTLTCTFSGFSLSTAGMSVGWIRQPPGKALEWLADIWWDDKKDYNPSLKSRLTISKDTSKNQVVLKVTNMDPADTATYYCARSMITNFYFDVWGQGTTVTVSS VL: DIQMTQSPSTLSASVGDRVTITCSASSSVGYMHWYQQKPGKAPKLLIYDTFKLASGVPSRFSGSGSGTEFTLTISSLQPDDFATYYCFQGSFYPFTFGGGTKVEIK			0.00032	185000	2.88
Clone 1 (Fab) (Fab, V domains shown) VH: QVTLRESGPALVKPTQTLTLTCTFSGFSLSTAGMSVGWIRQPPGKALEWLADIWWDDKKDYNPSLKSRLTISKDTSKNQVVLKVTNMDPADTATYYCARDMITNFYFDVWGQGTTVTVSS VL: DIQMTQSPSTLSASVGDRVTITCSASSSVGYMHWYQQKPGKAPKLLIYDTFKLTSGVPSRFSGSGSGTEFTLTISSLQPDDFATYYCFQGSGYPFTFGGGTKVEIK			0.000326	365000	2.26
Clone 2 (Fab) (Fab, V domains shown) VH: QVTLRESGPALVKPTQTLTLTCTFSGFSLSTAGMSVGWIRQPPGKALEWLADIWWDDKKDYNPSLKSRLTISKDTSKNQVVLKVTNMDPADTATYYCARDMIFNWYFDVWGQGTTVTVSS VL: DIQMTQSPSTLSASVGDRVTITCSASSSVGYMHWYQQKPGKAPKLLIYDTFKLASGVPSRFSGSGSGTEFTLTISSLQPDDFATYYCFQGSGYPFTFGGGTKVEIK			0.000422	531000	5.05
Clone 3 (Fab) (Fab, V domains shown) VH: QVTLRESGPALVKPTQTLTLTCTFSGFSLSTAGMSVGWIRQPPGKALEWLADIWWDDKKDYNPSLKSRLTISKDTSKNQVVLKVTNMDPADTATYYCARDMIFNWYFDVWGQGTTVTVSS VL: DIQMTQSPSTLSASVGDRVTITCSASSSVGYMHWYQQKPGKAPKLLIYDTYKQTSGVPSRFSGSGSGTEFTLTISSLQPDDFATYYCFQGSGYPFTFGGGTKVEIK			0.000422	605000	4.7
Clone 4 (Fab) (Fab, V domains shown, also called H3-3F4) VH: QVTLRESGPALVKPTQTLTLTCTFSGFSLSTAGMSVGWIRQPPGKALEWLADIWWDDKKDYNPSLKSRLTISKDTSKNQVVLKVTNMDPADTATYYCARDMIFNWYFDVWGQGTTVTVSS VL: DIQMTQSPSTLSASVGDRVTITCSASSSVGYMHWYQQKPGKAPKLLIYDTRYLSSGVPSRFSGSGSGTEFTLTISSLQPDDFATYYCFQGSGYPFTFGGGTKVEIK			0.000462	757000	3.55
